Measurements taken from patent publication US20040106198.

Legend:
[1] = target: T1, N-Suc-AAPM-pNA
T1 chain: AAPM

[2] = target: T2, N-Suc-AAPF-pNA
T2 chain: AAPF

[3] = target: T3, N-Suc-AAV-pNA
T3 chain: AAV

[4] = target: T4, N-Suc-GGG-pNA
T4 chain: GGG

[5] = target: T5, N-Suc-VGR-pNA
T5 chain: VGR

[6] = target: T6, N-Suc-YLV-pNA
T6 chain: YLV

[7] = target: T7, N-Suc-AAPI-pNA
T7 chain: AAPI

[8] = target: T8, N-Suc-AAPA-pNA
T8 chain: AAPA

[9] = target: T9, N-Suc-AAVA-pNA
T9 chain: AAVA

[10] = target: T10, N-Suc-AAPV-pNA
T10 chain: AAPV

[11] = target: T11, N-Suc-GGL-pNA
T11 chain: GGL

[12] = target: T12, N-Suc-GFG-pNA
T12 chain: GFG

[13] = target: T13, N-Suc-GGF-pNA
T13 chain: GGF

[14] = target: T14, N-Suc-PFR-pNA
T14 chain: PFR

[15] = target: human growth hormone, P01241
human growth hormone, P01241, sequence (P01241 27-217): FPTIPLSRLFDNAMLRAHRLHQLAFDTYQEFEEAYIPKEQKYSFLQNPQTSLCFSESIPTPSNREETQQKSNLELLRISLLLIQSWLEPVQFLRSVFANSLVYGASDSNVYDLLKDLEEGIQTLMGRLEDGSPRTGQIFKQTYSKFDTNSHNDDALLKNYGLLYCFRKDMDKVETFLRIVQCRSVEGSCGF

[16] = target: T15, N-Suc-IEGR-pNA
T15 chain: IEGR

[17] = target: T16, N-Suc-AAA-pNA
T16 chain: AAA

[18] = target: oxidized bovine insulin B chain, P01317
oxidized bovine insulin B chain, P01317, sequence (P01317 25-54): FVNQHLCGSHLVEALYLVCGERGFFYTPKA

[19] = target: T17, N-Suc-AAPL-pNA
T17 chain: AAPL

[20] = target: T18, N-Suc-YVAD-pNA
T18 chain: YVAD

[21] = target: T19, N-Suc-FVR-pNA
T19 chain: FVR

[22] = target: T20, N-Suc-GPK-pNA
T20 chain: GPK

[23] = target: T21, N-Suc-AAPD-pNA
T21 chain: AAPD

B1: Nicotianalisin (Nicotiana benthamiana subtilisin-like serine protease) (protein)
chain: ANCITMYFLLLTILLLTLNPLTMAESETYIIHMDLSAMPKAFSSHQNWYLTTLASVSGSSSLGTESNRNSFSSSKLVYAYTNAIHGFSATLSPSELQVIKNSPGYLSSTKDMTVKIDTTHTSQFLGLNSDSGAWPKSDYGKDVIVGLVDTGIWPESKSYNDNGMTEVPSRWKGECESGTQFNSSLCNKKLIGARYFNKGLIANNPNITISMNSARDTDGHGTHTSSTAAGSHVESASYFGYARGSATGMAPKAHVAMYKALWEEGTMLSDILAAIDQAIEDGVDIISLSLGIDDLALYEDPVAIATFAAMEKDIFVSTSAGNEGPDDQALHNGTPWVLTVAAGTVDREFIGTLSLGNGVSVTGLSLYPGNSSSSESSIVFLKTCLEEKELEKNAHKFAVCYDTNGSVSDQLYNVKNTKVAGGIFITNYTDLEFYLQSEFPAVFLNFEDGDKVLEYIKNSHSPKARLEFQVTHLGAKPAPKVASYSSRGPSESCPFILKPDLMAPGALILASWPQKSPATQIRSGELFSNFNIISGTSMSCPHAAGVAALLKGAHPKWSPAAIRSAMMTTADTMDNMQMPIRDIGRNNNAASPLAMGAGRINPNKALDPGLIYDITSQDYINLLCALDFTSQQIKAITRSSAYSCSNSSLDLNYPSFIGYFNYNSSESDPKRIQEFQRTVTNVGEGMSVYTAKLTSMGDYKASVAPDKLVFKEKYEKQSYKLRIEGPLLVDIILFMVL
Question: Which Relative Activity (release of p-NA at 410 nm, 0.3 mM substrate) (% of the activity with N-Suc-AAPL-pNA) [1] does the source give for B1 here?
Answer: Its Relative Activity (release of p-NA at 410 nm, 0.3 mM substrate) (% of the activity with N-Suc-AAPL-pNA) is 100.

Question: And the Relative Activity (release of p-NA at 410 nm, 0.3 mM substrate) (% of the activity with N-Suc-AAPL-pNA) [2]?
Answer: Its Relative Activity (release of p-NA at 410 nm, 0.3 mM substrate) (% of the activity with N-Suc-AAPL-pNA) is 67.

Question: What about the Relative Activity (release of p-NA at 410 nm, 0.3 mM substrate) (% of the activity with N-Suc-AAPL-pNA) [3] of the same protein?
Answer: Its Relative Activity (release of p-NA at 410 nm, 0.3 mM substrate) (% of the activity with N-Suc-AAPL-pNA) is 5.

Question: And the Relative Activity (release of p-NA at 410 nm, 0.3 mM substrate) (% of the activity with N-Suc-AAPL-pNA) [4]?
Answer: The Relative Activity (release of p-NA at 410 nm, 0.3 mM substrate) (% of the activity with N-Suc-AAPL-pNA) was 1.

Question: And the Relative Activity (release of p-NA at 410 nm, 0.3 mM substrate) (% of the activity with N-Suc-AAPL-pNA) [5]?
Answer: The Relative Activity (release of p-NA at 410 nm, 0.3 mM substrate) (% of the activity with N-Suc-AAPL-pNA) was 3.

Question: What about the Relative Activity (release of p-NA at 410 nm, 0.3 mM substrate) (% of the activity with N-Suc-AAPL-pNA) [6] of the same protein?
Answer: Its Relative Activity (release of p-NA at 410 nm, 0.3 mM substrate) (% of the activity with N-Suc-AAPL-pNA) is 0.

Question: What about the Relative Activity (release of p-NA at 410 nm, 0.3 mM substrate) (% of the activity with N-Suc-AAPL-pNA) [7] of the same protein?
Answer: The Relative Activity (release of p-NA at 410 nm, 0.3 mM substrate) (% of the activity with N-Suc-AAPL-pNA) was 8.

Question: What about the Relative Activity (release of p-NA at 410 nm, 0.3 mM substrate) (% of the activity with N-Suc-AAPL-pNA) [8] of the same protein?
Answer: Its Relative Activity (release of p-NA at 410 nm, 0.3 mM substrate) (% of the activity with N-Suc-AAPL-pNA) is 24.

Question: And the Relative Activity (release of p-NA at 410 nm, 0.3 mM substrate) (% of the activity with N-Suc-AAPL-pNA) [9]?
Answer: The Relative Activity (release of p-NA at 410 nm, 0.3 mM substrate) (% of the activity with N-Suc-AAPL-pNA) was 20.

Question: And the Relative Activity (release of p-NA at 410 nm, 0.3 mM substrate) (% of the activity with N-Suc-AAPL-pNA) [10]?
Answer: The Relative Activity (release of p-NA at 410 nm, 0.3 mM substrate) (% of the activity with N-Suc-AAPL-pNA) was 8.

Question: And the Relative Activity (release of p-NA at 410 nm, 0.3 mM substrate) (% of the activity with N-Suc-AAPL-pNA) [11]?
Answer: The Relative Activity (release of p-NA at 410 nm, 0.3 mM substrate) (% of the activity with N-Suc-AAPL-pNA) was 1.

Question: And the Relative Activity (release of p-NA at 410 nm, 0.3 mM substrate) (% of the activity with N-Suc-AAPL-pNA) [12]?
Answer: Its Relative Activity (release of p-NA at 410 nm, 0.3 mM substrate) (% of the activity with N-Suc-AAPL-pNA) is 1.

Question: And the Relative Activity (release of p-NA at 410 nm, 0.3 mM substrate) (% of the activity with N-Suc-AAPL-pNA) [13]?
Answer: The Relative Activity (release of p-NA at 410 nm, 0.3 mM substrate) (% of the activity with N-Suc-AAPL-pNA) was 3.

Question: And the Relative Activity (release of p-NA at 410 nm, 0.3 mM substrate) (% of the activity with N-Suc-AAPL-pNA) [14]?
Answer: Its Relative Activity (release of p-NA at 410 nm, 0.3 mM substrate) (% of the activity with N-Suc-AAPL-pNA) is 1.

Question: What about the “in vitro cleavage of purified hGH at a 1:50 protease:substrate ratio, 10-30 min at 30 C, SDS-PAGE and Western blot (FIGS. 7 and 8)” value [15] of the same protein?
Answer: The value was “Two prominent immunoreactive degradation products were detected”.

Question: What about the Relative Activity (release of p-NA at 410 nm, 0.3 mM substrate) (% of the activity with N-Suc-AAPL-pNA) [16] of the same protein?
Answer: Its Relative Activity (release of p-NA at 410 nm, 0.3 mM substrate) (% of the activity with N-Suc-AAPL-pNA) is 18.

Question: What about the Relative Activity (release of p-NA at 410 nm, 0.3 mM substrate) (% of the activity with N-Suc-AAPL-pNA) [17] of the same protein?
Answer: The Relative Activity (release of p-NA at 410 nm, 0.3 mM substrate) (% of the activity with N-Suc-AAPL-pNA) was 2.

Question: What about the “hydrolysis of oxidized insulin B chain, 2 to 16 hr at 37 C, MALDI-TOF of the cleavage products (FIG. 6)” value [18] of the same protein?
Answer: The value was “hydrolysis occurred after leucine, cysteine, proline, and lysine amino acid residues”.

Question: And the Relative Activity (release of p-NA at 410 nm, 0.3 mM substrate) (% of the activity with N-Suc-AAPL-pNA) [19]?
Answer: The Relative Activity (release of p-NA at 410 nm, 0.3 mM substrate) (% of the activity with N-Suc-AAPL-pNA) was 100.

Question: And the Relative Activity (release of p-NA at 410 nm, 0.3 mM substrate) (% of the activity with N-Suc-AAPL-pNA) [20]?
Answer: Its Relative Activity (release of p-NA at 410 nm, 0.3 mM substrate) (% of the activity with N-Suc-AAPL-pNA) is 70.

Question: And the Relative Activity (release of p-NA at 410 nm, 0.3 mM substrate) (% of the activity with N-Suc-AAPL-pNA) [21]?
Answer: Its Relative Activity (release of p-NA at 410 nm, 0.3 mM substrate) (% of the activity with N-Suc-AAPL-pNA) is 1.

Question: And the Relative Activity (release of p-NA at 410 nm, 0.3 mM substrate) (% of the activity with N-Suc-AAPL-pNA) [22]?
Answer: The Relative Activity (release of p-NA at 410 nm, 0.3 mM substrate) (% of the activity with N-Suc-AAPL-pNA) was 2.

Question: What about the Relative Activity (release of p-NA at 410 nm, 0.3 mM substrate) (% of the activity with N-Suc-AAPL-pNA) [23] of the same protein?
Answer: Its Relative Activity (release of p-NA at 410 nm, 0.3 mM substrate) (% of the activity with N-Suc-AAPL-pNA) is 16.
